PMC7885266 (Chemical Science, 2020)
Where “and” joins values, the source holds several entries; their conditions need not be identical. Identical values can stand only once.

B1: 4TBP-CTPR8 (designed binder)
chain: AEAWYNLGNAYYKQGDYQKAIEYYQKALELDPNNREAGDGEEDPRSAEAWYNLGNAYYKQGDYQKAIEYYQKALELDPRSAEAWYNLGNAYYKQGDYQKAIEYYQKALELDPNNREAGDGEEDPRSAEAWYNLGNAYYKQGDYQKAIEYYQKALELDPRSAEAWYNLGNAYYKQGDYQKAIEYYQKALELDPNNREAGDGEEDPRSAEAWYNLGNAYYKQGDYQKAIEYYQKALELDPRSAEAWYNLGNAYYKQGDYQKAIEYYQKALELDPNNREAGDGEEDPRSAEAWYNLGNAYYKQGDYQKAIEYYQKALELDPRS
B2: 2TBP-CTPR4 (designed binder)
chain: AEAWYNLGNAYYKQGDYQKAIEYYQKALELDPNNREAGDGEEDPRSAEAWYNLGNAYYKQGDYQKAIEYYQKALELDPRSAEAWYNLGNAYYKQGDYQKAIEYYQKALELDPNNREAGDGEEDPRSAEAWYNLGNAYYKQGDYQKAIEYYQKALELDPRS
B3: 1TBP-CTPR2 (designed binder)
chain: AEAWYNLGNAYYKQGDYQKAIEYYQKALELDPNNREAGDGEEDPRSAEAWYNLGNAYYKQGDYQKAIEYYQKALELDPRS
B5: Tankyrase-2 Ankyrin Repeat Cluster 4 (residues 488-649) (domain or fragment, human, UniProt Q9H2K2 488-649, looked up)
chain: GNSEADRQLLEAAKAGDVETVKKLCTVQSVNCRDIEGRQSTPLHFAAGYNRVSVVEYLLQHGADVHAKDKGGLVPLHNACSYGHYEVAELLVKHGAVVNVADLWKFTPLHEAAAKGKYEICKLLLQHGADPTKKNRDGNTPLDLVKDGDTDIQDLLRGDAAL
notes: human tankyrase 2, fourth ankyrin-repeat cluster (ARC4), residues 488-649; also called hTNKS2 ARC4; TNKS2 ARC4; source: E. coli, purified (IMAC, SEC; His tag removed with thrombin)

Legend:
Conditions in all cases: both partners purified
[1] = molecular target: B5; assay: ITC; TNKS2 ARC4 (500 μM) titrated into the cell holding one nTBP-CTPR2n construct (50, 25, 16.6 or 12.5 μM); 25 °C; 10 mM sodium phosphate, 150 mM NaCl, 0.5 mM TCEP, pH 7.4; OneSite model
3TBP-CTPR6 [2] = molecular target: T1, 3TBP-CTPR6; assay: co-sedimentation; co-precipitation assay: 10 μM hTNKS2 ARC1–3 mixed with an equal volume of CTPR protein (fixed or increasing concentrations) in 50 mM Tris-HCl, 150 mM NaCl, 0.5 mM TCEP, pH 7.3; 1 h at room temperature, 20 000g 30 min; supernatant and pellet on SDS-PAGE, band densities give the stoichiometry in the pellet
T1 chain: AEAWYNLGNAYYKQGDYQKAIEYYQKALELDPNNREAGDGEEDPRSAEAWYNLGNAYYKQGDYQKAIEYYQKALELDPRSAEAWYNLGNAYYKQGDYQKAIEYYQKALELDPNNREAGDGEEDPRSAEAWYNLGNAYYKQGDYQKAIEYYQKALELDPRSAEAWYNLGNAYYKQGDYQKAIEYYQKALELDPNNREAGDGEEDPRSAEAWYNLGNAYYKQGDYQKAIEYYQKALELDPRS

1TBP-CTPR2 = molecular target: B3; assay: ITC; TNKS2 ARC4 (500 μM) titrated into the cell holding one nTBP-CTPR2n construct (50, 25, 16.6 or 12.5 μM); 25 °C; 10 mM sodium phosphate, 150 mM NaCl, 0.5 mM TCEP, pH 7.4; OneSite model
2TBP-CTPR4 = molecular target: B2; assay: as above
3TBP-CTPR6 [3] = molecular target: T1, 3TBP-CTPR6; assay: as above
4TBP-CTPR8 = molecular target: B1; assay: as above

B1
Kd [1]: 13.6 µM and 15.5 µM

B2
Kd [1]: 11.9 µM and 18.6 µM

B3
Kd [1]: 14.7 µM and 12.8 µM

B4: Tankyrase-2 Ankyrin Repeat Clusters 1-3 (residues 2-485) (domain or fragment, human, UniProt Q9H2K2 2-485, looked up)
chain: SGRRCAGGGAACASAAAEAVEPAARELFEACRNGDVERVKRLVTPEKVNSRDTAGRKSTPLHFAAGFGRKDVVEYLLQNGANVQARDDGGLIPLHNACSFGHAEVVNLLLRHGADPNARDNWNYTPLHEAAIKGKIDVCIVLLQHGAEPTIRNTDGRTALDLADPSAKAVLTGEYKKDELLESARSGNEEKMMALLTPLNVNCHASDGRKSTPLHLAAGYNRVKIVQLLLQHGADVHAKDKGDLVPLHNACSYGHYEVTELLVKHGACVNAMDLWQFTPLHEAASKNRVEVCSLLLSYGADPTLLNCHNKSAIDLAPTPQLKERLAYEFKGHSLLQAAREADVTRIKKHLSLEMVNFKHPQTHETALHCAAASPYPKRKQICELLLRKGANINEKTKEFLTPLHVASEKAHNDVVEVVVKHEAKVNALDNLGQTSLHRAAYCGHLQTCRLLLSYGCDPNIISLQGFTALQMGNENVQQLLQEGI
notes: human tankyrase 2, ankyrin-repeat clusters 1-3, residues 2-485; also called hTNKS2 ARC1–3; source: E. coli, purified (IMAC, SEC; His tag removed with thrombin)
stoichiometry N (3TBP-CTPR6 [2]): 1

B5
stoichiometry N (1TBP-CTPR2): 1.01 and 0.9
stoichiometry N (2TBP-CTPR4): 2.18 and 2.05
stoichiometry N (3TBP-CTPR6 [3]): 2.77 and 2.72
stoichiometry N (4TBP-CTPR8): 3.38 and 2.91
